± gives the standard deviation of the averaged measurements.
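Further: ATP exposure 15 min at 22 °C before imaging.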

The subject of this data set is ATP. The data set is described as follows: switch fluorescence ratio, 500 uM ATP over buffer (Cy3 cluster intensity, sum of 5 cycles each) (fold (ratio)); higher = stronger signal-on switching upon ATP binding; sequences stand for … in TCGTCGGCAGCGTCAGATGTGTATAAGAGACAGTTTTTTTTTTTTTTTTTTTTTTTTT…TC. The conditions noted are these: aptamer strand: ATP DNA aptamer (quencher-CACCTGGGGGAGTATTGCGGAGGAAGG + anchor), 100 nM annealed; ATP concentration: 500 uM. Put shortly:
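After annealing to 100 nM quencher-labelled ATP aptamer, Cy3-labelled switching-strand clusters on a modified Illumina MiSeq flow-cell were imaged in selection buffer. A second image followed after 15 min with 500 uM ATP at 22 °C, and five such buffer/ATP cycles were done, each separated by NaOH stripping and re-annealing. The fluorescence ratio, averaged per switch-domain sequence, is summed target-cycle over summed buffer-cycle Cy3 intensity per cluster, with clusters outside 100-1000 RFU excluded.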
Take TTGGAATTCT: the switch fluorescence ratio worked out at 1.04 ± 0.081.
With TGGTTAAGGT the figure was 0.982 ± 0.033.
Regarding AGGTTCTCGG, the switch fluorescence ratio amounted to 0.967 ± 0.026.
Regarding TGAGTGCTGC, the switch fluorescence ratio was 1.08 ± 0.075.
With ACTAAAAGGC, the switch fluorescence ratio worked out at 1.0107 ± 3.2e-05.
As to AGGTTAGGG, the switch fluorescence ratio is 1 ± 0.064.
Regarding GATTATGGTT, the switch fluorescence ratio worked out at 0.9891 ± 0.003.
To GTTTGATCAG belongs 0.941 ± 0.011; to AAAAGTGGGG, 1.02 ± 0.019.
For the sequence TAGAGAAGTT, the switch fluorescence ratio was determined as 1 ± 0.015.
To GTGTTAACTG belongs 0.984 ± 0.028; to TATGCGGGGG, 1.02 ± 0.046; to TTTAGGTCTA, 0.978 ± 0.019.
To TGAAAGTTTG belongs 1.01 ± 0.026; to TCCGCGACGG, 1.4 ± 0.2.
For the sequence GGGGAATACA, the switch fluorescence ratio worked out at 1.02 ± 0.017.
As to ACTTTTTAGT, the switch fluorescence ratio stood at 0.986 ± 0.05.
With CGGTTTTATA, the switch fluorescence ratio worked out at 0.9619 ± 0.0088.
On to GTCTGTTCTT, for which the switch fluorescence ratio worked out at 0.951 ± 0.019.
On to GTGGCAAAAG, for which the switch fluorescence ratio stood at 1.02 ± 0.033.
Regarding TCGGTAGGGG, the switch fluorescence ratio stood at 0.999 ± 0.025.
In the case of ACACGGGATG, the switch fluorescence ratio amounted to 1.06 ± 0.077.
On to GGAGGTAGGG, for which the switch fluorescence ratio came to 0.99915 ± 0.00057.
On to TGGTCGTTCT, for which the switch fluorescence ratio was found to be 1.03 ± 0.033.
With TAGGACGGTG, the switch fluorescence ratio amounted to 0.992 ± 0.034.
To ATCGGCGTAT belongs 1.01 ± 0.012; to CGCCTGGCCG, 0.9439 ± 0.0079; to TAGGCCAAGT, 0.989 ± 0.026.
In the case of ACGTCGCATT, the switch fluorescence ratio worked out at 1.19 ± 0.035.
For TGATCATGTT, the switch fluorescence ratio was determined as 0.984 ± 0.037.
To CATAGTTTGG belongs 1.07 ± 0.034; to TGACAGGCGG, 0.963 ± 0.011; to CGAGTCAGTT, 0.992 ± 0.029.
For the sequence AGTTTGCTTT, the switch fluorescence ratio worked out at 0.995 ± 0.035.
As to TGGAAGGAAG, the switch fluorescence ratio stood at 0.9998 ± 0.0073.
Consider TACTGTAGGG, for which the switch fluorescence ratio was 1.12 ± 0.029.
With GCGTACGTAG the figure was 0.998 ± 0.019; with GGGGGCTAAA, 1.02 ± 0.017.
Consider TTAGGACTTG, for which the switch fluorescence ratio turned out to be 0.985 ± 0.015.
As to TTAGTTGTTT, the switch fluorescence ratio turned out to be 0.964 ± 0.023.
Take GGGTTTTGGT: the switch fluorescence ratio was 0.978 ± 0.022.
For the sequence AGACACGAAT, the switch fluorescence ratio stood at 0.9811 ± 0.0068.
For TTTGGGAGTT, the switch fluorescence ratio is 1.05 ± 0.19.
GGTTGTATGG: the switch fluorescence ratio is 0.975 ± 0.012.
Regarding CACATATTCC, the switch fluorescence ratio stood at 1.14 ± 0.035.
As for AGTTATTATT, the switch fluorescence ratio was 0.963 ± 0.0055.
Regarding CGGGATGCGC, the switch fluorescence ratio was determined as 1.04 ± 0.066.
Take GGGTATAATA: the switch fluorescence ratio is 1.01 ± 0.014.
Consider CTGGCCGGGC, for which the switch fluorescence ratio was found to be 1.03 ± 0.022.
For the sequence CAGTTAAAGG, the switch fluorescence ratio was 1.01 ± 0.017.
Consider TTATAATCTG, for which the switch fluorescence ratio was 0.986 ± 0.064.
To ACAGAAGGGA belongs 1.03 ± 0.068.
To AAGAGGGTTT belongs 1.01 ± 0.05; to GTCGTAAAGG, 0.998 ± 0.021; to CTGGTATATC, 1.063 ± 0.0067.
In the case of TCCGGTTTTA, the switch fluorescence ratio was 0.981 ± 0.02.
With GAGGGGTGGT the figure was 0.987 ± 0.029.
Regarding ATGGAGTAAA, the switch fluorescence ratio amounted to 1.005 ± 0.0084.
To TATGAGGATC belongs 1.01 ± 0.039; to ATTTTAGTTA, 1 ± 0.038; to CATGGATGCC, 0.998 ± 0.022.
TATGCAGGGA: the switch fluorescence ratio came out at 1.16 ± 0.29.
With ACACTGCTTA, the switch fluorescence ratio turned out to be 1.02 ± 0.044.
As to TGAGGCCCCG, the switch fluorescence ratio amounted to 0.991 ± 0.025.
In the case of GCTATAGACT, the switch fluorescence ratio turned out to be 1.02 ± 0.067.
With GGGGCGTTAT the figure was 0.969 ± 0.048; with ACGTTATTTG, 1.11 ± 0.052.
With CAAGTAATTG, the switch fluorescence ratio was determined as 1.025 ± 0.0088.
Take TAATTTTGGG: the switch fluorescence ratio was 0.999 ± 0.047.
Turning to TAGCCGGAGG, the switch fluorescence ratio was 0.986 ± 0.018.
With AGACGATTGT the figure was 0.985 ± 0.018.
With CGGCCATTTG the figure was 0.993 ± 0.059.
With CTATTATGTG, the switch fluorescence ratio was determined as 0.985 ± 0.043.
For the sequence TTCCAGTTGG, the switch fluorescence ratio worked out at 1.04 ± 0.037.
As to GGCGATGGGG, the switch fluorescence ratio came out at 0.979 ± 0.023.
Turning to TGCTGCGGCT, the switch fluorescence ratio came out at 1.01 ± 0.019.
For the sequence GTGAGTGGGG, the switch fluorescence ratio turned out to be 0.972 ± 0.021.
For the sequence TACGTCACGA, the switch fluorescence ratio turned out to be 1.42 ± 0.19.
Regarding TTTAGGTTCA, the switch fluorescence ratio was 0.98 ± 0.041.

(Values after the supplement of paper PMC10126150.)
